Source: IntAct's records for PubMed 25201882

Experiments:
sc16a_mouse Sec16a = sc16a_mouse Sec16a (UniProt E9QAT4)
sc16a_human SEC16A = sc16a_human SEC16A (UniProt O15027)
Sequence of UniProt O15027 (O15027 whole entry): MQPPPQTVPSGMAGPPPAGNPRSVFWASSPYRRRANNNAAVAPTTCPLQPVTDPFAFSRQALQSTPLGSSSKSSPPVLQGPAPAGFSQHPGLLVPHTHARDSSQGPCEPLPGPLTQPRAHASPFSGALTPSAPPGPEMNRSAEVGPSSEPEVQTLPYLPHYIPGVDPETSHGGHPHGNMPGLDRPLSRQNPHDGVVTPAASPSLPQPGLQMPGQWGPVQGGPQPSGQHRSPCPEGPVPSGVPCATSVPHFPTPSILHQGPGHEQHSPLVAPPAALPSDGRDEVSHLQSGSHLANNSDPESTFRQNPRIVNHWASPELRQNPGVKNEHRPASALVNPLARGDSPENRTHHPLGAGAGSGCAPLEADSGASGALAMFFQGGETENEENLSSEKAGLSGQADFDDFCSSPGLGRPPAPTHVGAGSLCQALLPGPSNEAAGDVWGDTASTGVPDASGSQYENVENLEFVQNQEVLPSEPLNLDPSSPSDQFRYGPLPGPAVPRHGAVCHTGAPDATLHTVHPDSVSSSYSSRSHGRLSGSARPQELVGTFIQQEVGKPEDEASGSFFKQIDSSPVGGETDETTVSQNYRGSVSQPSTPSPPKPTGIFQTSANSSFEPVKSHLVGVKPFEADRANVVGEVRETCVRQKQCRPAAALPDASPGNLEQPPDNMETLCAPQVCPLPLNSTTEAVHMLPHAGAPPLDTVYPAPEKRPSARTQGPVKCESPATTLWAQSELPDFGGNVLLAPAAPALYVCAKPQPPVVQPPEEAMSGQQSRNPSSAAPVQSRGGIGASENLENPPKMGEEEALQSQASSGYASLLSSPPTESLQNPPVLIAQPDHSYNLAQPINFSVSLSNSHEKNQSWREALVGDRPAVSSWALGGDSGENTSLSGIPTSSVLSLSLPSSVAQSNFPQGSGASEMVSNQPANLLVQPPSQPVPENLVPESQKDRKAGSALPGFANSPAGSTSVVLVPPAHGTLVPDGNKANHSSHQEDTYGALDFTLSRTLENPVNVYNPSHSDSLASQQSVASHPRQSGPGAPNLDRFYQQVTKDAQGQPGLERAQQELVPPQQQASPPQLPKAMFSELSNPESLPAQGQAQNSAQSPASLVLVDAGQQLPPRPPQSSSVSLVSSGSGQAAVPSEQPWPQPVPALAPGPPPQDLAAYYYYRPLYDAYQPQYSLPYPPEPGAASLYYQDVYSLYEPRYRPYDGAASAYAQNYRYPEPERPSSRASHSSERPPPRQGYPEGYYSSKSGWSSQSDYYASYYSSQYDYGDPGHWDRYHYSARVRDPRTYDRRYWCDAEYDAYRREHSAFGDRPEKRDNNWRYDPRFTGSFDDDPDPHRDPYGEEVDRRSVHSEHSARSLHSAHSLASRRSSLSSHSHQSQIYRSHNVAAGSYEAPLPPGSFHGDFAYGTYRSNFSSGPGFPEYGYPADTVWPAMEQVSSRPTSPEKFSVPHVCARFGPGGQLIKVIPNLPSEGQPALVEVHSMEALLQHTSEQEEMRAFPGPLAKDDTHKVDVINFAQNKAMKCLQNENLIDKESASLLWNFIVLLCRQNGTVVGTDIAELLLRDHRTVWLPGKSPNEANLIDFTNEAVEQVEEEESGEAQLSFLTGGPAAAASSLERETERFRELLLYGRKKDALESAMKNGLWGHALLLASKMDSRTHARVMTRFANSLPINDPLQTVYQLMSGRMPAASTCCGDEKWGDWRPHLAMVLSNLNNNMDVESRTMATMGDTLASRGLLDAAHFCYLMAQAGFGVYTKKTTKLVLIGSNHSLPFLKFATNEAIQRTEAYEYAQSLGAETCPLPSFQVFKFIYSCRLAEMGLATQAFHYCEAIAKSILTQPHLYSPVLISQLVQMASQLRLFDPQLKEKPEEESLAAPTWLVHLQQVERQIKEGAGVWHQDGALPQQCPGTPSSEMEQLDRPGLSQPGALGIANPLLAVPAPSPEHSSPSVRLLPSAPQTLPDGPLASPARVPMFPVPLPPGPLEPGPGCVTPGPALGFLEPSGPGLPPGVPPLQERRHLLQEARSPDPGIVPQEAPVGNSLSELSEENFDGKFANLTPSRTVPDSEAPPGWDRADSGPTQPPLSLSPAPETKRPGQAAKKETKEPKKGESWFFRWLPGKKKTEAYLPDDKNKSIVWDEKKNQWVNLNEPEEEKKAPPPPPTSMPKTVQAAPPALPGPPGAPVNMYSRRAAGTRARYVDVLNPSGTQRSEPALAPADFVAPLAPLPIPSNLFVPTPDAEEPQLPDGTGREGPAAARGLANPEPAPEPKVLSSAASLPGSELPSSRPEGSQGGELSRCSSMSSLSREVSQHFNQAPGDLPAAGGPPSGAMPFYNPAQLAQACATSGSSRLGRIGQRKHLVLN

Sequence of UniProt E9QAT4 (E9QAT4 whole entry): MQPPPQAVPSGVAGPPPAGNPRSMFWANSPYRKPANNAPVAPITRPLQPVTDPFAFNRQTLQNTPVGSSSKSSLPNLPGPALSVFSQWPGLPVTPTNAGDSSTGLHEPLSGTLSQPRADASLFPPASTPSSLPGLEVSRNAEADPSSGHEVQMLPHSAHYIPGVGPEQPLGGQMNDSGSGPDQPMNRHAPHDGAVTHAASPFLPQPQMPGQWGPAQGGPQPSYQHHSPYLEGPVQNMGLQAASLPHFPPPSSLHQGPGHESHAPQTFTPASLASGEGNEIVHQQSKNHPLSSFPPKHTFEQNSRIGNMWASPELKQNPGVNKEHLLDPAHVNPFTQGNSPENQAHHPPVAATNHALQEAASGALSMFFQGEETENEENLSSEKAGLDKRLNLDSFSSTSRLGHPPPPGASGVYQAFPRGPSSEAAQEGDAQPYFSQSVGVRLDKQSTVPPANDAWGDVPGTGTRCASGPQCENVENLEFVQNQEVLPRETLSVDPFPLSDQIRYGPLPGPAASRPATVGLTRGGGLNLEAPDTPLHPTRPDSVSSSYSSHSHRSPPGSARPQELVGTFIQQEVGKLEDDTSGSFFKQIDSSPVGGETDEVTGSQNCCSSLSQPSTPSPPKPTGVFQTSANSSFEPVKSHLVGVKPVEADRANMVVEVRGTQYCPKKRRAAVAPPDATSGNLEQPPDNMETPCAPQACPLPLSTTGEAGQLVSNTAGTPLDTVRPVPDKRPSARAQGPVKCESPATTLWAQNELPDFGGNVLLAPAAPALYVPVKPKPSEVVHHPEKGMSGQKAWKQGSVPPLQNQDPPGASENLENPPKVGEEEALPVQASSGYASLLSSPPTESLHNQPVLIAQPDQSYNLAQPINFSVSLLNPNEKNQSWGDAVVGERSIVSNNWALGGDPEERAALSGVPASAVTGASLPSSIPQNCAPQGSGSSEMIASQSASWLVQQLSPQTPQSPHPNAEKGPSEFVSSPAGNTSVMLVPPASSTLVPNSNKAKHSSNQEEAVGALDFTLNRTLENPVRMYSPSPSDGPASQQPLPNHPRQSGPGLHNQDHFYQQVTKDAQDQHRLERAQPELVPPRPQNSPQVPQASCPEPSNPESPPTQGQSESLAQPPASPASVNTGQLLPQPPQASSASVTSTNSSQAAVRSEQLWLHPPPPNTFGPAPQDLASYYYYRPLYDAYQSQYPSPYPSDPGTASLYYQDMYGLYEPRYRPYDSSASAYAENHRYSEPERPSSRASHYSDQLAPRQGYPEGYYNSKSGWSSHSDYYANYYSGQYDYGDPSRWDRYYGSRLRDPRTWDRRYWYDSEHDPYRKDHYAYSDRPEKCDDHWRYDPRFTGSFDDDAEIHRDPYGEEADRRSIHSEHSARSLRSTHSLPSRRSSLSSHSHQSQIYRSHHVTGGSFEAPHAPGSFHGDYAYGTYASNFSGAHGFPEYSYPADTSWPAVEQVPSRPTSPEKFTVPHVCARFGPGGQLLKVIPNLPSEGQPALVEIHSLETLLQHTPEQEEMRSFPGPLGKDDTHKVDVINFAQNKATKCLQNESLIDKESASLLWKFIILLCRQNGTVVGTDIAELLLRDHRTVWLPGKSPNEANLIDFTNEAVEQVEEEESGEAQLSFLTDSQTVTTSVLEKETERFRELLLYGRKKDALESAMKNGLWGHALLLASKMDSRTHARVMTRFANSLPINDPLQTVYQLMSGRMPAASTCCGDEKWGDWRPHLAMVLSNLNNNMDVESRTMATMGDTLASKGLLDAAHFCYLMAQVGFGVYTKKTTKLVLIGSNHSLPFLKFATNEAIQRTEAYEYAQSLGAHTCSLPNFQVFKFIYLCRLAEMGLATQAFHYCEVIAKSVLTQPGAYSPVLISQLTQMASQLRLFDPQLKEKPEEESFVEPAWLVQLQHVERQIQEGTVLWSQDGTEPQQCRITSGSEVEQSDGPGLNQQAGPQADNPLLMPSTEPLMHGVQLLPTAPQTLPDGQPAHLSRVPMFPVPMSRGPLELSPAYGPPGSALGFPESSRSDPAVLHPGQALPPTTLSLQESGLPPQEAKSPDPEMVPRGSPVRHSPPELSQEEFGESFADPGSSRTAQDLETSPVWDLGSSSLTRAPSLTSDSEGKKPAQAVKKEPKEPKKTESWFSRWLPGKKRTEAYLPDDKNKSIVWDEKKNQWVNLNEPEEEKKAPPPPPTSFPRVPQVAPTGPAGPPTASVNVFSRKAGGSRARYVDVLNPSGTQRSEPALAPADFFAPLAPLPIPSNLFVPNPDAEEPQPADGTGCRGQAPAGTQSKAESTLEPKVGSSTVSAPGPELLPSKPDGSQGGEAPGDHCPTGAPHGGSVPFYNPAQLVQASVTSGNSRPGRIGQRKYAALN

Leucine-rich repeat serine/threonine-protein kinase 2 (Homo sapiens), Q5S007 K1347A
effect of a mutation on the interaction (sc16a_mouse Sec16a): disrupting interaction strength
effect of a mutation on the interaction (sc16a_human SEC16A): disrupting interaction strength

Leucine-rich repeat serine/threonine-protein kinase 2 (Homo sapiens), Q5S007 R1441C
effect of a mutation on the interaction (sc16a_mouse Sec16a): disrupting interaction strength
effect of a mutation on the interaction (sc16a_human SEC16A): decreasing interaction strength
